Results as given in US20260008815A1, “CYCLIC PEPTIDE OR SALT THEREOF, AND USES THEREOF” (FUJIFILM Corporation, priority 2023, published 2026).
Bridge positions count the residues as written; N and C are the ends. Ends that are not written are not given here. COCH2 = acetyl group that carries the bridge

Target: T1, Recombinant Human FGFR2 alpha (IIIc) Fc Chimera Protein (Homo sapiens, UniProt P21802)
T1 construct: Fc (chimera); purchased R&D systems 712-FR-050
Test: ELISA binding affinity of enzymatically synthesized peptide to FGFR
Settings: ELISA luminescence signal at 10 nmol/L peptide, SEQ ID NO: 47 at 10 nmol/L standardized to 1; enzyme synthesis product
Outline: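 FGFR2 alpha (IIIc) Fc chimera (5 ng/well) was immobilized, and Myc-tagged peptide was bound 3 h at room temperature, then detected with anti-Myc antibody (2 h) and chemiluminescent substrate. Signal was corrected against FGFR-free wells. Score A–D was the luminescence at 10 nmol/L peptide, normalized to cyclic peptide SEQ ID NO: 47.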

T1 sequence (P21802 with tags, fused parts or gaps limits assumed): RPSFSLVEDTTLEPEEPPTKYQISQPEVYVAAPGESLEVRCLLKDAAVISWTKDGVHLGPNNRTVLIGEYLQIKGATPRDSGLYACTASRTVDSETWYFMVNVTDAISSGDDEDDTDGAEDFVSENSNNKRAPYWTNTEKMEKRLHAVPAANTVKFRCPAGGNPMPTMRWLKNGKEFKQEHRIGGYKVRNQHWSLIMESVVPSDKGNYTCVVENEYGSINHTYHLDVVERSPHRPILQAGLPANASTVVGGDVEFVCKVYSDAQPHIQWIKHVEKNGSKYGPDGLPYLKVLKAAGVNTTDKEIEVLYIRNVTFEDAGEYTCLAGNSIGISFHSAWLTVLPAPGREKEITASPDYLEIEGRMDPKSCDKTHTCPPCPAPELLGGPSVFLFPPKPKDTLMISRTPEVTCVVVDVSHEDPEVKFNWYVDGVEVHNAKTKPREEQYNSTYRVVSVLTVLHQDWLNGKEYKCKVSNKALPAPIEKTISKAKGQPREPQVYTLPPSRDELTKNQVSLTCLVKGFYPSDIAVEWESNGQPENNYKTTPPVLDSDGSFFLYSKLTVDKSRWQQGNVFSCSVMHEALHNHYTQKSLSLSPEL

Substance	Evaluation result of binding affinity to FGFR
137 (PCEENYLDPEQYQYFIYFK(COCH2)Y; thioether 2-19 (inferred)) [compound 137]	A (0.7 or more)
138 (LCEENYLDPEQYQYFIYFK(COCH2)Y; thioether 2-19 (inferred)) [compound 138]	A (0.7 or more)
139 (ICEENYLDPEQYQYFIYFK(COCH2)Y; thioether 2-19 (inferred)) [compound 139]	A (0.7 or more)
140 (VCEENYLDPEQYQYFIYFKY; Description of Artificial Sequence: Cyclic peptide) [compound 140]	A (0.7 or more)
141 (FCEENYLDPEQYQYFIYFKY; Description of Artificial Sequence: Cyclic peptide) [compound 141]	A (0.7 or more)
142 (WCEENYLDPEQYQYFIYFKY; Description of Artificial Sequence: Cyclic peptide) [compound 142]	A (0.7 or more)
143 (NCEENYLDPEQYQYFIYFKY; Description of Artificial Sequence: Cyclic peptide) [compound 143]	A (0.7 or more)
144 (QCEENYLDPEQYQYFIYFKY; Description of Artificial Sequence: Cyclic peptide) [compound 144]	A (0.7 or more)
145 (SCEENYLDPEQYQYFIYFKY; Description of Artificial Sequence: Cyclic peptide) [compound 145]	A (0.7 or more)
146 (TCEENYLDPEQYQYFIYFKY; Description of Artificial Sequence: Cyclic peptide) [compound 146]	A (0.7 or more)
147 (DCEENYLDPEQYQYFIYFKY; Description of Artificial Sequence: Cyclic peptide) [compound 147]	A (0.7 or more)
148 (ECEENYLDPEQYQYFIYFKY; Description of Artificial Sequence: Cyclic peptide) [compound 148]	A (0.7 or more)
149 (RCEENYLDPEQYQYFIYFKY; Description of Artificial Sequence: Cyclic peptide) [compound 149]	A (0.7 or more)
150 (HCEENYLDPEQYQYFIYFK(COCH2)Y; thioether 2-19 (inferred)) [compound 150]	A (0.7 or more)
151 (YCGENYLDPEQYQYFIYFK(COCH2)Y; thioether 2-19 (inferred)) [compound 151]	A (0.7 or more)
152 (YCPENYLDPEQYQYFIYFK(COCH2)Y; thioether 2-19 (inferred)) [compound 152]	A (0.7 or more)
153 (YCLENYLDPEQYQYFIYFK(COCH2)Y; thioether 2-19 (inferred)) [compound 153]	A (0.7 or more)
154 (YCIENYLDPEQYQYFIYFK(COCH2)Y; thioether 2-19 (inferred)) [compound 154]	A (0.7 or more)
155 (YCVENYLDPEQYQYFIYFK(COCH2)Y; thioether 2-19 (inferred)) [compound 155]	A (0.7 or more)

Substance	Evaluation result of binding affinity to FGFR
156 (YCFENYLDPEQYQYFIYFK(COCH2)Y; thioether 2-19 (inferred)) [compound 156]	A (0.7 or more)
157 (YCYENYLDPEQYQYFIYFK(COCH2)Y; thioether 2-19 (inferred)) [compound 157]	A (0.7 or more)
158 (YCWENYLDPEQYQYFIYFK(COCH2)Y; thioether 2-19 (inferred)) [compound 158]	A (0.7 or more)
159 (YCNENYLDPEQYQYFIYFK(COCH2)Y; thioether 2-19 (inferred)) [compound 159]	A (0.7 or more)
160 (YCQENYLDPEQYQYFIYFK(COCH2)Y; thioether 2-19 (inferred)) [compound 160]	A (0.7 or more)
161 (YCSENYLDPEQYQYFIYFK(COCH2)Y; thioether 2-19 (inferred)) [compound 161]	A (0.7 or more)
162 (YCTENYLDPEQYQYFIYFK(COCH2)Y; thioether 2-19 (inferred)) [compound 162]	A (0.7 or more)
163 (YCDENYLDPEQYQYFIYFK(COCH2)Y; thioether 2-19 (inferred)) [compound 163]	A (0.7 or more)
164 (YCRENYLDPEQYQYFIYFK(COCH2)Y; thioether 2-19 (inferred)) [compound 164]	A (0.7 or more)
165 (YCHENYLDPEQYQYFIYFK(COCH2)Y; thioether 2-19 (inferred)) [compound 165]	A (0.7 or more)
166 (YCEGNYLDPEQYQYFIYFK(COCH2)Y; thioether 2-19 (inferred)) [compound 166]	A (0.7 or more)
167 (YCEPNYLDPEQYQYFIYFK(COCH2)Y; thioether 2-19 (inferred)) [compound 167]	A (0.7 or more)
168 (YCELNYLDPEQYQYFIYFK(COCH2)Y; thioether 2-19 (inferred)) [compound 168]	A (0.7 or more)
169 (YCEINYLDPEQYQYFIYFK(COCH2)Y; thioether 2-19 (inferred)) [compound 169]	A (0.7 or more)
170 (YCEVNYLDPEQYQYFIYFK(COCH2)Y; thioether 2-19 (inferred)) [compound 170]	A (0.7 or more)
171 (YCEFNYLDPEQYQYFIYFK(COCH2)Y; thioether 2-19 (inferred)) [compound 171]	B (0.5 or more and less than 0.7)
172 (YCEYNYLDPEQYQYFIYFK(COCH2)Y; thioether 2-19 (inferred)) [compound 172]	A (0.7 or more)
173 (YCEWNYLDPEQYQYFIYFK(COCH2)Y; thioether 2-19 (inferred)) [compound 173]	A (0.7 or more)
174 (YCENNYLDPEQYQYFIYFK(COCH2)Y; thioether 2-19 (inferred)) [compound 174]	A (0.7 or more)

Substance	Evaluation result of binding affinity to FGFR
175 (YCEQNYLDPEQYQYFIYFK(COCH2)Y; thioether 2-19 (inferred)) [compound 175]	A (0.7 or more)
176 (YCESNYLDPEQYQYFIYFK(COCH2)Y; thioether 2-19 (inferred)) [compound 176]	A (0.7 or more)
177 (YCETNYLDPEQYQYFIYFK(COCH2)Y; thioether 2-19 (inferred)) [compound 177]	A (0.7 or more)
178 (YCEDNYLDPEQYQYFIYFK(COCH2)Y; thioether 2-19 (inferred)) [compound 178]	A (0.7 or more)
179 (YCERNYLDPEQYQYFIYFK(COCH2)Y; thioether 2-19 (inferred)) [compound 179]	A (0.7 or more)
180 (YCEHNYLDPEQYQYFIYFK(COCH2)Y; thioether 2-19 (inferred)) [compound 180]	A (0.7 or more)
181 (YCEEGYLDPEQYQYFIYFK(COCH2)Y; thioether 2-19 (inferred)) [compound 181]	B (0.5 or more and less than 0.7)
182 (YCEEWYLDPEQYQYFIYFK(COCH2)Y; thioether 2-19 (inferred)) [compound 182]	C (0.1 or more and less than 0.5)
183 (YCEEQYLDPEQYQYFIYFK(COCH2)Y; thioether 2-19 (inferred)) [compound 183]	C (0.1 or more and less than 0.5)
184 (YCEESYLDPEQYQYFIYFK(COCH2)Y; thioether 2-19 (inferred)) [compound 184]	C (0.1 or more and less than 0.5)
185 (YCEETYLDPEQYQYFIYFK(COCH2)Y; thioether 2-19 (inferred)) [compound 185]	C (0.1 or more and less than 0.5)
186 (YCEENLLDPEQYQYFIYFK(COCH2)Y; thioether 2-19 (inferred)) [compound 186]	C (0.1 or more and less than 0.5)
187 (YCEENFLDPEQYQYFIYFK(COCH2)Y; thioether 2-19 (inferred)) [compound 187]	A (0.7 or more)
188 (YCEENWLDPEQYQYFIYFK(COCH2)Y; thioether 2-19 (inferred)) [compound 188]	A (0.7 or more)
189 (YCEENNLDPEQYQYFIYFK(COCH2)Y; thioether 2-19 (inferred)) [compound 189]	B (0.5 or more and less than 0.7)
190 (YCEENQLDPEQYQYFIYFK(COCH2)Y; thioether 2-19 (inferred)) [compound 190]	C (0.1 or more and less than 0.5)
191 (YCEENSLDPEQYQYFIYFK(COCH2)Y; thioether 2-19 (inferred)) [compound 191]	C (0.1 or more and less than 0.5)
192 (YCEENDLDPEQYQYFIYFK(COCH2)Y; thioether 2-19 (inferred)) [compound 192]	C (0.1 or more and less than 0.5)
